According to PMC5477506:

Legend:
[1] = target: Se-Met CpTRIC (Colwellia psychrerythraea 34H); assay: crystal structure; Se-Met CpTRIC in octylmaltoside, crystallised from detergent micelles (38% PEG400, 0.1 M NaCl, 0.1 M CdCl2, 0.1 M Tris-HCl pH 8.5); space group R32, one protomer per asymmetric unit
[2] = target: CpTRIC, prokaryotic TRIC homologue from the bacterium Colwellia psychrerythraea (Colwellia psychrerythraea 34H); assay: cross-linking; purified protein in DDM (around 1 mg/ml in 30 ul) with glutaraldehyde (0, 0.00005%, 0.0001%, 0.0005%, 0.001%) at room temperature for 8 h; quenched with 50 mM Tris-Cl pH 8.0; 12% SDS-PAGE
[3] = target: CpTRIC, prokaryotic TRIC homologue from the bacterium Colwellia psychrerythraea (Colwellia psychrerythraea 34H); assay: SEC-MALS; analytical size-exclusion chromatography in detergent-containing mobile phases; multi-angle light scattering with refractive index detection used to analyse the oligomeric state
[4] = target: SaTRIC, prokaryotic TRIC homologue from the archaeon Sulfolobus acidocaldarius, wild type (Sulfolobus acidocaldarius); assay: cross-linking; purified protein in DDM (around 1 mg/ml in 30 ul) with glutaraldehyde (0, 0.00005%, 0.0001%, 0.0005%, 0.001%) at room temperature for 8 h; quenched with 50 mM Tris-Cl pH 8.0; 12% SDS-PAGE
[5] = target: SaTRIC, prokaryotic TRIC homologue from the archaeon Sulfolobus acidocaldarius, wild type (Sulfolobus acidocaldarius); assay: SEC-MALS; analytical size-exclusion chromatography in detergent-containing mobile phases; multi-angle light scattering with refractive index detection used to analyse the oligomeric state
[6] = target: SaTRIC, prokaryotic TRIC homologue from the archaeon Sulfolobus acidocaldarius, wild type (Sulfolobus acidocaldarius); assay: crystal structure; SaTRIC purified in DM, crystallised in lipid cubic phase (monoolein); lattices P6(3), P321 and R32, one molecule per asymmetric unit, trimer about the crystallographic three-fold axis
[7] = target: Se-Met SaTRIC mutant (L148M) (Sulfolobus acidocaldarius); assay: as above

**Q.** Se-Met CpTRIC (natural protein) was tested. Which stoichiometry N [1] did it give?
**A.** The stoichiometry N was 3.

**Q.** Which results are given for “CpTRIC, prokaryotic TRIC homologue from the bacterium Colwellia psychrerythraea (natural protein)”?
**A.** stoichiometry N [2]: 3; stoichiometry N [3]: 3

**Q.** What does the source list for “SaTRIC, prokaryotic TRIC homologue from the archaeon Sulfolobus acidocaldarius, wild type (natural protein)”?
**A.** stoichiometry N [4]: 3; stoichiometry N [5]: 3; stoichiometry N [6]: 3

**Q.** Which stoichiometry N [7] does the source give for “Se-Met SaTRIC mutant (L148M) (natural protein)” here?
**A.** The stoichiometry N was 3.
